Experimental data reported in publication doi:10.1101/2024.01.20.576400 (bioRxiv, 2024).
pKd: −log10 of the molar value.

Columns and labels:
[1] = target: Pwl2-2 (Magnaporthe oryzae); experiment: ITC
[2] = target: Pwl2-3 (Magnaporthe oryzae); experiment: ITC

HMA domain of OsHIPP43 (residues 26-101) (from UniProt Q8LJL3 26-101) (domain or fragment)
pKd [1]: 6.85
pKd [2]: 7.46
